Experimental data taken from US12630600B2 (MEDIMMUNE LIMITED, priority 2022, dated 2026).
Starred links: 1 amine or outer side, 2 acyl side, 3 side chain; linkers in the order of their positions; H or OH if unused. Non-standard residues stand in square brackets, D forms with d. Groups on a side chain read outwards from the residue. No end group written: not given here. *: point of attachment. PEG12 = NCCOCCOCCOCCOCCOCCOCCOCCOCCOCCOCCOCCOCCC(=O)O; C18 diacid = O=C(O)CCCCCCCCCCCCCCCCC(=O)*; PEG8 = NCCOCCOCCOCCOCCOCCOCCOCCOCCC(=O)O; Dip = N[C@H](C(=O)O)C(c1ccccc1)c1ccccc1; γGlu = O=C(O)[C@H](CCC(=O)[*:2])N[*:1]; Stearoyl = CCCCCCCCCCCCCCCCCC(=O)*; αMeF = C[C@](N)(Cc1ccccc1)C(=O)O; (PEG)2 = polyethylene glycol 2; PEG4 = NCCOCCOCCOCCOCCC(=O)O; AEEA = NCCOCCOCC(=O)O; Aib = CC(C)(N)C(=O)O

Key:
[1] = molecular target: human GLP-1 receptor (human, UniProt P43220); assay: cell-based or functional assay
[2] = molecular target: human glucagon receptor (human, UniProt P47871); assay: cell-based or functional assay

Binder	cAMP production, hGLP-1R EC50 (pM) [1]	cAMP production, hGluc-R EC50 (pM) [2]
HSQGS[αMeF]TSDVSK[Dip]LDSK([γGlu-(PEG)2-γGlu-(PEG)2-Stearoyl])AAQD[αMeF]VE[Aib]IINT-NH2 [Peptide 60]	5.16 pM	21.1 pM
H[Aib]HGS[αMeF]TSDVSK[αMeF]LDSK([AEEA-AEEA-γGlu-C18 diacid])AAQD[αMeF]VEWIAN-NH2 (N-terminus assumed; SMILES CC[C@H](C)[C@H](NC(=O)[C@H](Cc1c[nH]c2ccccc12)NC(=O)[C@H](CCC(=O)O)NC(=O)[C@@H](NC(=O)[C@](C)(Cc1ccccc1)NC(=O)[C@H](CC(=O)O)NC(=O)[C@H](CCC(N)=O)NC(=O)[C@H](C)NC(=O)[C@H](C)NC(=O)[C@H](CCCCNC(=O)COCCOCCNC(=O)COCCOCCNC(=O)CC[C@H](NC(=O)CCCCCCCCCCCCCCCCC(=O)O)C(=O)O)NC(=O)[C@H](CO)NC(=O)[C@H](CC(=O)O)NC(=O)[C@H](CC(C)C)NC(=O)[C@](C)(Cc1ccccc1)NC(=O)[C@H](CCCCN)NC(=O)[C@H](CO)NC(=O)[C@@H](NC(=O)[C@H](CC(=O)O)NC(=O)[C@H](CO)NC(=O)[C@@H](NC(=O)[C@](C)(Cc1ccccc1)NC(=O)[C@H](CO)NC(=O)CNC(=O)[C@H](Cc1c[nH]cn1)NC(=O)C(C)(C)NC(=O)[C@@H](N)Cc1c[nH]cn1)[C@@H](C)O)C(C)C)C(C)C)C(=O)N[C@@H](C)C(=O)N[C@@H](CC(N)=O)C(N)=O) [Peptide 6]	568 pM	516 pM
H[Aib]HGS[αMeF]TSDVSK[αMeF]LDSK([γGlu-C18 diacid])AAQD[αMeF]VEWIANT-NH2 (N-terminus assumed; SMILES CC[C@H](C)[C@H](NC(=O)[C@H](Cc1c[nH]c2ccccc12)NC(=O)[C@H](CCC(=O)O)NC(=O)[C@@H](NC(=O)[C@](C)(Cc1ccccc1)NC(=O)[C@H](CC(=O)O)NC(=O)[C@H](CCC(N)=O)NC(=O)[C@H](C)NC(=O)[C@H](C)NC(=O)[C@H](CCCCNC(=O)CC[C@H](NC(=O)CCCCCCCCCCCCCCCCC(=O)O)C(=O)O)NC(=O)[C@H](CO)NC(=O)[C@H](CC(=O)O)NC(=O)[C@H](CC(C)C)NC(=O)[C@](C)(Cc1ccccc1)NC(=O)[C@H](CCCCN)NC(=O)[C@H](CO)NC(=O)[C@@H](NC(=O)[C@H](CC(=O)O)NC(=O)[C@H](CO)NC(=O)[C@@H](NC(=O)[C@](C)(Cc1ccccc1)NC(=O)[C@H](CO)NC(=O)CNC(=O)[C@H](Cc1c[nH]cn1)NC(=O)C(C)(C)NC(=O)[C@@H](N)Cc1c[nH]cn1)[C@@H](C)O)C(C)C)C(C)C)C(=O)N[C@@H](C)C(=O)N[C@@H](CC(N)=O)C(=O)N[C@H](C(N)=O)[C@@H](C)O) [Peptide 7]	84.6 pM	30.7 pM
HSQGS[αMeF]TSDVSK[Dip]LDSK([PEG12-γGlu-γGlu-Stearoyl])AAQD[αMeF]VE[Aib]IINT-NH2 (N-terminus assumed; SMILES CCCCCCCCCCCCCCCCCC(=O)N[C@@H](CCC(=O)N[C@@H](CCC(=O)NCCOCCOCCOCCOCCOCCOCCOCCOCCOCCOCCOCCOCCC(=O)NCCCC[C@H](NC(=O)[C@H](CO)NC(=O)[C@H](CC(=O)O)NC(=O)[C@H](CC(C)C)NC(=O)[C@@H](NC(=O)[C@H](CCCCN)NC(=O)[C@H](CO)NC(=O)[C@@H](NC(=O)[C@H](CC(=O)O)NC(=O)[C@H](CO)NC(=O)[C@@H](NC(=O)[C@](C)(Cc1ccccc1)NC(=O)[C@H](CO)NC(=O)CNC(=O)[C@H](CCC(N)=O)NC(=O)[C@H](CO)NC(=O)[C@@H](N)Cc1c[nH]cn1)[C@@H](C)O)C(C)C)C(c1ccccc1)c1ccccc1)C(=O)N[C@@H](C)C(=O)N[C@@H](C)C(=O)N[C@@H](CCC(N)=O)C(=O)N[C@@H](CC(=O)O)C(=O)N[C@@](C)(Cc1ccccc1)C(=O)N[C@H](C(=O)N[C@@H](CCC(=O)O)C(=O)NC(C)(C)C(=O)N[C@H](C(=O)N[C@H](C(=O)N[C@@H](CC(N)=O)C(=O)N[C@H](C(N)=O)[C@@H](C)O)[C@@H](C)CC)[C@@H](C)CC)C(C)C)C(=O)O)C(=O)O) [Peptide 58]	3.9 pM	11.3 pM

Results, then the binder that gave them:

cAMP production, hGLP-1R EC50 (pM) [1]	cAMP production, hGluc-R EC50 (pM) [2]	Binder
18.8 pM	19.1 pM	HSQGS[αMeF]TSDVSK[Dip]LDSK([(PEG)2-(PEG)2-γGlu-γGlu-Stearoyl])AAQD[αMeF]VQ[Dip]LEA-NH2 [Peptide 55]
4.86 pM	10.9 pM	HSQGS[αMeF]TSDVSK[Dip]LDSK([PEG4-γGlu-γGlu-Stearoyl])AAQD[αMeF]VE[Aib]IINT-NH2 (N-terminus assumed; SMILES CCCCCCCCCCCCCCCCCC(=O)N[C@@H](CCC(=O)N[C@@H](CCC(=O)NCCOCCOCCOCCOCCC(=O)NCCCC[C@H](NC(=O)[C@H](CO)NC(=O)[C@H](CC(=O)O)NC(=O)[C@H](CC(C)C)NC(=O)[C@@H](NC(=O)[C@H](CCCCN)NC(=O)[C@H](CO)NC(=O)[C@@H](NC(=O)[C@H](CC(=O)O)NC(=O)[C@H](CO)NC(=O)[C@@H](NC(=O)[C@](C)(Cc1ccccc1)NC(=O)[C@H](CO)NC(=O)CNC(=O)[C@H](CCC(N)=O)NC(=O)[C@H](CO)NC(=O)[C@@H](N)Cc1c[nH]cn1)[C@@H](C)O)C(C)C)C(c1ccccc1)c1ccccc1)C(=O)N[C@@H](C)C(=O)N[C@@H](C)C(=O)N[C@@H](CCC(N)=O)C(=O)N[C@@H](CC(=O)O)C(=O)N[C@@](C)(Cc1ccccc1)C(=O)N[C@H](C(=O)N[C@@H](CCC(=O)O)C(=O)NC(C)(C)C(=O)N[C@H](C(=O)N[C@H](C(=O)N[C@@H](CC(N)=O)C(=O)N[C@H](C(N)=O)[C@@H](C)O)[C@@H](C)CC)[C@@H](C)CC)C(C)C)C(=O)O)C(=O)O) [Peptide 56]
6.18 pM	28.4 pM	HSQGS[αMeF]TSDVSK[Dip]LDSK([γGlu-γGlu-(PEG)2-(PEG)2-Stearoyl])AAQD[αMeF]VE[Aib]IINT-NH2 [Peptide 59]
9.09 pM	16.9 pM	HSQGS[αMeF]TSDVSK[Dip]LDSK([PEG8-γGlu-γGlu-Stearoyl])AAQD[αMeF]VE[Aib]IINT-NH2 (N-terminus assumed; SMILES CCCCCCCCCCCCCCCCCC(=O)N[C@@H](CCC(=O)N[C@@H](CCC(=O)NCCOCCOCCOCCOCCOCCOCCOCCOCCC(=O)NCCCC[C@H](NC(=O)[C@H](CO)NC(=O)[C@H](CC(=O)O)NC(=O)[C@H](CC(C)C)NC(=O)[C@@H](NC(=O)[C@H](CCCCN)NC(=O)[C@H](CO)NC(=O)[C@@H](NC(=O)[C@H](CC(=O)O)NC(=O)[C@H](CO)NC(=O)[C@@H](NC(=O)[C@](C)(Cc1ccccc1)NC(=O)[C@H](CO)NC(=O)CNC(=O)[C@H](CCC(N)=O)NC(=O)[C@H](CO)NC(=O)[C@@H](N)Cc1c[nH]cn1)[C@@H](C)O)C(C)C)C(c1ccccc1)c1ccccc1)C(=O)N[C@@H](C)C(=O)N[C@@H](C)C(=O)N[C@@H](CCC(N)=O)C(=O)N[C@@H](CC(=O)O)C(=O)N[C@@](C)(Cc1ccccc1)C(=O)N[C@H](C(=O)N[C@@H](CCC(=O)O)C(=O)NC(C)(C)C(=O)N[C@H](C(=O)N[C@H](C(=O)N[C@@H](CC(N)=O)C(=O)N[C@H](C(N)=O)[C@@H](C)O)[C@@H](C)CC)[C@@H](C)CC)C(C)C)C(=O)O)C(=O)O) [Peptide 57]
